Laboratory results: publication PMC3335088 (PLoS ONE, 2012)

Experiments:
Conditions in all cases: partners not purified
[1] = molecular target: T1, MCM4 with 6-His tag in combination with a StrepII tag (UniProt P33991 1-863); assay: pull-down; co-expression in High Five insect cells; lysis in 50-100 mM Tris-HCl pH 8.0, 150 mM NaCl, 5% glycerol, 0.5% Triton X-100; tagged protein recovered on Ni-NTA, anti-FLAG M2, anti-HA or StrepT-actin resin, 1 hr at 4°C; washes with 300 mM NaCl; Coomassie staining and Western blot
T1 construct: MCM4; The methods describe one MCM4 baculovirus with both tags; also called Strep-MCM4; Strep-tagged MCM4; source: High Five insect cells, baculovirus, in lysate
T1 sequence (looked up): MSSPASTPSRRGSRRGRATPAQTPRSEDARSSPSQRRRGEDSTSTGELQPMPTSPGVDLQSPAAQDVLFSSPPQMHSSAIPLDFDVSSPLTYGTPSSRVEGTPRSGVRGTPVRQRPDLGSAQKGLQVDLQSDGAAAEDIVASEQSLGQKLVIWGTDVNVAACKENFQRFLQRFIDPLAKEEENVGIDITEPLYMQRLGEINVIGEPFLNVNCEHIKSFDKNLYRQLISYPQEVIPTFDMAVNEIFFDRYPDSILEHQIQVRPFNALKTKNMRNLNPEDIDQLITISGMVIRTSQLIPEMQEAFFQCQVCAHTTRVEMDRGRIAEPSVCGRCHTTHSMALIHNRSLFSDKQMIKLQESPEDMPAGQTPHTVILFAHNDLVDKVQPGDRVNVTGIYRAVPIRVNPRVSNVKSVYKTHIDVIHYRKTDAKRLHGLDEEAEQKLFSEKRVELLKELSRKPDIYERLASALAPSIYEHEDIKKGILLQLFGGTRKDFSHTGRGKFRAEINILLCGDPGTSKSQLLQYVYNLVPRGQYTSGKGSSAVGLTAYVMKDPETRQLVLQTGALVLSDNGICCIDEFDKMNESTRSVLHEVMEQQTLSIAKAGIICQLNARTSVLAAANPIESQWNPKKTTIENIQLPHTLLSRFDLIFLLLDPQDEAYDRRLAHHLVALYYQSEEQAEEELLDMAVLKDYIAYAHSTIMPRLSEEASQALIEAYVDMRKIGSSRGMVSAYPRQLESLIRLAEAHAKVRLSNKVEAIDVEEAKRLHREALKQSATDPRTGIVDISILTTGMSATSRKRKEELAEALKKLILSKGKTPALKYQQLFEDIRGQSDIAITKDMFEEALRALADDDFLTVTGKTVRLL

[2] = molecular target: T2, MCM5 with 6-His tag in combination with a triple FLAG tag (UniProt P33992 1-734); assay: as above
T2 construct: MCM5; also called FLAG-MCM5; 6-His-tagged MCM5; source: High Five insect cells, baculovirus, in lysate; not shown: His6, N-terminal, kept; triple FLAG, N-terminal, kept
T2 sequence (looked up): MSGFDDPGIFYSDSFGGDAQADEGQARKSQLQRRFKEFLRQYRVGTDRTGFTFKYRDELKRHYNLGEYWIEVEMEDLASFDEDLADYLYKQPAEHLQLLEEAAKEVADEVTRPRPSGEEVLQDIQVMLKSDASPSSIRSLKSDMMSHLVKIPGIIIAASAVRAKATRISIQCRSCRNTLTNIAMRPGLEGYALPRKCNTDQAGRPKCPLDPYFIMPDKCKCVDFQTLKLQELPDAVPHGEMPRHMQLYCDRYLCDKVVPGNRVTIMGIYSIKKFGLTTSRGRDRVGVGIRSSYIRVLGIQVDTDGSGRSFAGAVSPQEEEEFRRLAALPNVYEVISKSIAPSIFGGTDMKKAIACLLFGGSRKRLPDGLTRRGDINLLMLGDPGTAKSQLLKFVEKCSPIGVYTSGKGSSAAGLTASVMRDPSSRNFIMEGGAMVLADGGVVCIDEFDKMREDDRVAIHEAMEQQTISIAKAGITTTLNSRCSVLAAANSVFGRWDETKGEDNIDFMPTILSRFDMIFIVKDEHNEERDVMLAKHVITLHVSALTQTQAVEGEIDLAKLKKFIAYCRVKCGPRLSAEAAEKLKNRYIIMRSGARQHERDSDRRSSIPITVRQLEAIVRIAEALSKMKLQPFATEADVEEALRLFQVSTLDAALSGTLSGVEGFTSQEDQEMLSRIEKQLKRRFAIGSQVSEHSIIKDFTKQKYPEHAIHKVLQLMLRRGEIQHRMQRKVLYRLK

[3] = molecular target: T3, MCM6 with 6-His tag in combination with a HA tag (human, UniProt Q14566 1-821); assay: as above
T3 construct: MCM6; also called HA-MCM6; 6-His-tagged MCM6; source: High Five insect cells, baculovirus, in lysate
T3 sequence (looked up): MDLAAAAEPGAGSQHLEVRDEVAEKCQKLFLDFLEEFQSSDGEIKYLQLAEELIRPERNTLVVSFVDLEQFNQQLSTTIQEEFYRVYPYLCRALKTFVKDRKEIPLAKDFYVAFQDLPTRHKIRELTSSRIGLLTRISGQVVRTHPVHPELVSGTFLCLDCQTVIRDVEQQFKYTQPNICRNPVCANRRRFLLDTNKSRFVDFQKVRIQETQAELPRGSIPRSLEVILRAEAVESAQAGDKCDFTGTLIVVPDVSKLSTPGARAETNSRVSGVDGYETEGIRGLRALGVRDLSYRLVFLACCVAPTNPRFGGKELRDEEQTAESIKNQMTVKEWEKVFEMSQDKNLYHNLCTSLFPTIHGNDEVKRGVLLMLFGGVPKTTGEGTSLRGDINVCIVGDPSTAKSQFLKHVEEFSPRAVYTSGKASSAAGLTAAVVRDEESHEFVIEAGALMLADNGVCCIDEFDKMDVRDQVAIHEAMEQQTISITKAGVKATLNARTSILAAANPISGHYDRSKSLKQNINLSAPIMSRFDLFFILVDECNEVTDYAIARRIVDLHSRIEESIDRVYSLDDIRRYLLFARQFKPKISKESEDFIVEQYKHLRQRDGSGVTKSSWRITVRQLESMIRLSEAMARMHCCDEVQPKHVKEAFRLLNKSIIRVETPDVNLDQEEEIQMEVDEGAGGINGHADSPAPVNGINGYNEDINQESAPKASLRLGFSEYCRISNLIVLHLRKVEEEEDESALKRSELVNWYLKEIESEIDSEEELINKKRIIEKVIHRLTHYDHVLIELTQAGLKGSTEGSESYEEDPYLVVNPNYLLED

[4] = molecular target: T4, untagged MCM3 (UniProt P25205 1-808); assay: pull-down; co-expression in High Five insect cells; NaCl of the clarified lysate raised from 0.15 M up to 0.75 M, or deoxycholate added to 0.1 or 0.5% (with 150 mM NaCl), before incubation with Strep-T actin, anti-FLAG or nickel resin; Coomassie staining
T4 construct: MCM3, untagged; construct not described in the methods; also called MCM3 (no tag); source: High Five insect cells, baculovirus, in lysate; co-isolated with His-MCM-BP for the gradient
T4 sequence (looked up): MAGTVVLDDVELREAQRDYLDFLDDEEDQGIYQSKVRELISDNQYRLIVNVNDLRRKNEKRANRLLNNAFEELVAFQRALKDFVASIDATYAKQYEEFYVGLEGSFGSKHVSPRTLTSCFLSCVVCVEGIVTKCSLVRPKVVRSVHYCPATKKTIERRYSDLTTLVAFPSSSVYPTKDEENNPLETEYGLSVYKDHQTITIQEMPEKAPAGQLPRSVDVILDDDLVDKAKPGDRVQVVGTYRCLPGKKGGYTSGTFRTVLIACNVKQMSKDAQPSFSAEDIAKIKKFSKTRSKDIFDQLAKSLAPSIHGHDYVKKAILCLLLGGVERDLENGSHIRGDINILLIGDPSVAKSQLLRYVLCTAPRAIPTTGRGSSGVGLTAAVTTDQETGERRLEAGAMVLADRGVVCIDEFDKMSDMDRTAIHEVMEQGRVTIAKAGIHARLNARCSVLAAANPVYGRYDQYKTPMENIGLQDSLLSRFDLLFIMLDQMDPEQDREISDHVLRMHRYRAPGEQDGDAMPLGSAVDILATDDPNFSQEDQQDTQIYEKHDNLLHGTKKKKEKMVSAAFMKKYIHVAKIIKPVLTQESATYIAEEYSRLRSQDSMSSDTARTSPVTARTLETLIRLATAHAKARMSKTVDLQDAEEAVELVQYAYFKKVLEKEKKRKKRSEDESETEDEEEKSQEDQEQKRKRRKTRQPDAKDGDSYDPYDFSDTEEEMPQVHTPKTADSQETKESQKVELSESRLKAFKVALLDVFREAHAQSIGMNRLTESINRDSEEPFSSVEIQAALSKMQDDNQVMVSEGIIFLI

Row | Binder | binding result [1] | binding result [2] | binding result [3] | binding result [4]
1 | MCM-BP with no tags (natural protein, human, UniProt Q9BTE3 1-642, looked up, MCM-BP, human; made from pfastBacHT.MCM-BP by excising the 6-His tag; also called untagged MCM-BP; nontagged MCM-BP; source: High Five insect cells, baculovirus, co-expressed, in lysate) MPCGEDWLSHPLGIVQGFFAQNGVNPDWEKKVIEYFKEKLKENNAPKWVPSLNEVPLHYLKPNSFVKFRCMIQDMFDPEFYMGVYETVNQNTKAHVLHFGKYRDVAECGPQQELDLNSPRNTTLERQTFYCVPVPGESTWVKEAYVNANQARVSPSTSYTPSRHKRSYEDDDDMDLQPNKQKDQHAGARQAGSVGGLQWCGEPKRLETEASTGQQLNSLNLSSPFDLNFPLPGEKGPACLVKVYEDWDCFKVNDILELYGILSVDPVLSILNNDERDASALLDPMECTDTAEEQRVHSPPASLVPRIHVILAQKLQHINPLLPACLNKEESKTCKFVSSFMSELSPVRAELLGFLTHALLGDSLAAEYLILHLISTVYTRRDVLPLGKFTVNLSGCPRNSTFTEHLYRIIQHLVPASFRLQMTIENMNHLKFIPHKDYTANRLVSGLLQLPSNTSLVIDETLLEQGQLDTPGVHNVTALSNLITWQKVDYDFSYHQMEFPCNINVFITSEGRSLLPADCQIHLQPQLIPPNMEEYMNSLLSAVLPSVLNKFRIYLTLLRFLEYSISDEITKAVEDDFVEMRKNDPQSITADDLHQLLVVARCLSLSAGQTTLSRERWLRAKQLESLRRTRLQQQKCVNGNEL | binds | binds | binds | 
2 | His-tagged MCM-BP (natural protein, human, UniProt Q9BTE3 1-642, looked up, MCM-BP, human; pfastBacHT.MCM-BP; also called His-MCM-BP; His-BP; source: High Five insect cells, baculovirus; not shown: His6, N-terminal, kept) MPCGEDWLSHPLGIVQGFFAQNGVNPDWEKKVIEYFKEKLKENNAPKWVPSLNEVPLHYLKPNSFVKFRCMIQDMFDPEFYMGVYETVNQNTKAHVLHFGKYRDVAECGPQQELDLNSPRNTTLERQTFYCVPVPGESTWVKEAYVNANQARVSPSTSYTPSRHKRSYEDDDDMDLQPNKQKDQHAGARQAGSVGGLQWCGEPKRLETEASTGQQLNSLNLSSPFDLNFPLPGEKGPACLVKVYEDWDCFKVNDILELYGILSVDPVLSILNNDERDASALLDPMECTDTAEEQRVHSPPASLVPRIHVILAQKLQHINPLLPACLNKEESKTCKFVSSFMSELSPVRAELLGFLTHALLGDSLAAEYLILHLISTVYTRRDVLPLGKFTVNLSGCPRNSTFTEHLYRIIQHLVPASFRLQMTIENMNHLKFIPHKDYTANRLVSGLLQLPSNTSLVIDETLLEQGQLDTPGVHNVTALSNLITWQKVDYDFSYHQMEFPCNINVFITSEGRSLLPADCQIHLQPQLIPPNMEEYMNSLLSAVLPSVLNKFRIYLTLLRFLEYSISDEITKAVEDDFVEMRKNDPQSITADDLHQLLVVARCLSLSAGQTTLSRERWLRAKQLESLRRTRLQQQKCVNGNEL |  |  |  | binds
